Data as given in publication PMC11373624, “Development and preclinical characterization of a novel radiotheranostic EphA2-targeting bicyclic peptide” (Theranostics, 2024).
Numbered stars: 1 amine (or outer) side, 2 acyl side, 3 side chain; on linkers, the order of the positions; unused ones are H or OH. Bridge positions count the residues as written; N and C are the ends. Square brackets hold non-standard residues; d marks the D form. Peptide text beside a SMILES is read from it. * marks the point of attachment. DOTA = O=C(O)CN1CCN(CC(=O)O)CCN(CC(=O)*)CCN(CC(=O)O)CC1; TATA = O=C(CC[*:1])N1CN(C(=O)CC[*:2])CN(C(=O)CC[*:3])C1; Hyp = O=C(O)[C@@H]1C[C@@H](O)CN1; hArg = N=C(N)NCCCC[C@H](N)C(=O)O; Cba = N[C@@H](CC1CCC1)C(=O)O; βAla = NCCC(=O)O; Sar = CNCC(=O)O

Experiments:
HT1080 tumor xenograft = test: in vivo; details: mouse
From the text: (§1) For the cut and count biodistribution study of [^177Lu]Lu-BCY18469 the HT1080 xenograft model was used. […] (n = 3 mice per time point). Thereafter, mice were dissected, and organs of interest harvested, which included: blood, heart, lung, spleen, liver, kidneys, muscle (quadriceps), intestine, brain, tail, bone (femur) and grafted tumor.

in vivo = details: mouse; for tissue to tissue ratio at 1 h / tissue to tissue ratio at 2 h / tissue to tissue ratio at 6 h / tissue to tissue ratio at 24 h: iv, 150 pmol
From the text: as §1

HT1080 cells = test: Cell surface binding and internalization assay; assay type: cell-based, human
Description: To assess internalization and specificity, HT1080 cells (10^5 cells/well) were seeded in a 24-well plate coated with poly-L-lysine one day before the experiment. […] To determine specific uptake, 'cold' (non-radiolabeled) BCY18469 was added to half of the wells at an excess concentration of 10 µM/well or, alternatively, the cells were kept at 4 °C during the experiment. Following the incubation, the cells were thoroughly rinsed with cold PBS (3 x 1 mL). Subsequently, surface bound radioactivity was removed by washing with 50 mM glycine (pH 2.8, 2 x 500 µL). Finally, the internalized fraction was determined by lysing the cells with 0.5 M NaOH (500 µL). All fractions were collected and measured using a gamma counter (Perkin Elmer Wizard2, Germany). All counts were standardized to the initial activity, and specific surface binding as well as specific internalization were calculated by subtracting the non-specific binding values obtained from the wells treated with an excess of 'cold' compound. Results were calculated and expressed as %AA/10^5 cells (% applied activity/10^5 cells).

[1] = total radioactivity, Tumor-to-blood ratio
[2] = total radioactivity, Tumor-to-heart ratio
[3] = total radioactivity, Tumor-to-intestine ratio
[4] = total radioactivity, Tumor-to-kidneys ratio
[5] = total radioactivity, Tumor-to-liver ratio
[6] = total radioactivity, Tumor-to-lung ratio
[7] = total radioactivity, Tumor-to-muscle ratio
[8] = total radioactivity, Tumor-to-spleen ratio
[9] = total radioactivity, Tumor uptake
[10] = 4°C, block with 10 µM non-labeled compound, listed as 177Lu-BCY18469
[11] = 37°C, 45 min, 30 nM, listed as 177Lu-BCY18469

Structure (SMILES): CC(C)C[C@@H]1NC(=O)[C@@H]2CSCCC(=O)N3CN(CN(C3)C(=O)CCSC[C@H](NC(=O)[C@H](CC(=O)O)NC(=O)[C@H](CCCCNC(=N)N)NC(=O)[C@H](C)NC(=O)CN(C)C(=O)CN(C)C(=O)CN(C)C(=O)CN(C)C(=O)CN(C)C(=O)CN(C)C(=O)CN(C)C(=O)CN(C)C(=O)CN(C)C(=O)CN(C)C(=O)CCNC(=O)CN3CCN(CC(=O)O)CCN(CC(=O)O)CCN(CC(=O)O)CC3)C(=O)N3C[C@H](O)C[C@H]3C(=O)N[C@@H](CC3CCC3)C(=O)N[C@@H](C(C)C)C(=O)N[C@@H](CC(N)=O)C(=O)N3CCC[C@H]3C(=O)N[C@@H](CC(C)C)C(=O)N2)C(=O)CCSC[C@@H](C(N)=O)NC(=O)[C@H](CCCCNC(=N)N)NC(=O)[C@H](Cc2c[nH]c3ccccc23)NC(=O)[C@@H](CC(=O)O)NC(=O)[C@@H]2CCCN2C(=O)[C@H](Cc2c[nH]cn2)NC1=O [[177Lu]Lu-BCY18469, metal not drawn] ({DOTA-βAla}-[Sar][Sar][Sar][Sar][Sar][Sar][Sar][Sar][Sar][Sar]A[hArg]DC[Hyp][Cba]VNPLCLHP[dD]W[hArg]C-NH2; linker 14-21-28 via TATA)
- Brain uptake (HT1080 tumor xenograft; 1 h): 0 %ID/g
- Brain uptake (HT1080 tumor xenograft; 24 h): 0 %ID/g
- Tumor-to-muscle ratio (HT1080 tumor xenograft; iv, 150 pmol, 24 h): 88
- tissue uptake at 1 h (in vivo; Blood uptake): 0.2 %ID/g
- tissue uptake at 2 h (in vivo; Blood uptake): 0.03 %ID/g
- tissue uptake at 6 h (in vivo; Blood uptake): 0.02 %ID/g
- tissue uptake at 24 h (in vivo; Blood uptake): 0.01 %ID/g
- tissue uptake at 1 h (in vivo; Bone uptake): 0.3 %ID/g
- tissue uptake at 2 h (in vivo; Bone uptake): 0.21 %ID/g
- tissue uptake at 6 h (in vivo; Bone uptake): 0.56 %ID/g
- tissue uptake at 24 h (in vivo; Bone uptake): 0.44 %ID/g
- tissue uptake at 2 h (in vivo; Brain uptake): 0.01 %ID/g
- tissue uptake at 6 h (in vivo; Brain uptake): 0.01 %ID/g
- tissue uptake at 1 h (in vivo; Heart uptake): 0.1 %ID/g
- tissue uptake at 2 h (in vivo; Heart uptake): 0.03 %ID/g
- tissue uptake at 6 h (in vivo; Heart uptake): 0.05 %ID/g
- tissue uptake at 24 h (in vivo; Heart uptake): 0.03 %ID/g
- tissue uptake at 1 h (in vivo; Intestine uptake): 0.34 %ID/g
- tissue uptake at 2 h (in vivo; Intestine uptake): 0.16 %ID/g
- tissue uptake at 6 h (in vivo; Intestine uptake): 0.15 %ID/g
- tissue uptake at 24 h (in vivo; Intestine uptake): 0.1 %ID/g
- tissue uptake at 1 h (in vivo; Kidneys uptake): 65.3 %ID/g
- tissue uptake at 2 h (in vivo; Kidneys uptake): 47.2 %ID/g
- tissue uptake at 6 h (in vivo; Kidneys uptake): 62.6 %ID/g
- tissue uptake at 1 h (in vivo; Liver uptake): 0.25 %ID/g
- tissue uptake at 2 h (in vivo; Liver uptake): 0.15 %ID/g
- tissue uptake at 6 h (in vivo; Liver uptake): 0.6 %ID/g
- tissue uptake at 24 h (in vivo; Liver uptake): 0.53 %ID/g
- tissue uptake at 1 h (in vivo; Lung uptake): 0.7 %ID/g
- tissue uptake at 2 h (in vivo; Lung uptake): 0.19 %ID/g
- tissue uptake at 6 h (in vivo; Lung uptake): 0.28 %ID/g
- tissue uptake at 24 h (in vivo; Lung uptake): 0.13 %ID/g
- tissue uptake at 1 h (in vivo; Muscle uptake): 0.06 %ID/g
- tissue uptake at 2 h (in vivo; Muscle uptake): 0.02 %ID/g
- tissue uptake at 6 h (in vivo; Muscle uptake): 0.03 %ID/g
- tissue uptake at 24 h (in vivo; Muscle uptake): 0.02 %ID/g
- tissue uptake at 1 h (in vivo; Spleen uptake): 0.6 %ID/g
- tissue uptake at 2 h (in vivo; Spleen uptake): 0.16 %ID/g
- tissue uptake at 6 h (in vivo; Spleen uptake): 0.4 %ID/g
- tissue uptake at 24 h (in vivo; Spleen uptake): 0.31 %ID/g
- tissue uptake at 1 h (in vivo; Tail uptake): 1.8 %ID/g
- tissue uptake at 2 h (in vivo; Tail uptake): 0.7 %ID/g
- tissue uptake at 6 h (in vivo; Tail uptake): 0.83 %ID/g
- tissue uptake at 24 h (in vivo; Tail uptake): 0.38 %ID/g
- tissue uptake at 2 h (in vivo; Tumor uptake): 9.99 %ID/g
- tissue to tissue ratio at 1 h (in vivo; [1]): 97.5
- tissue to tissue ratio at 2 h (in vivo; [1]): 333
- tissue to tissue ratio at 6 h (in vivo; [1]): 278
- tissue to tissue ratio at 24 h (in vivo; [1]): 177
- tissue to tissue ratio at 1 h (in vivo; [2]): 195
- tissue to tissue ratio at 2 h (in vivo; [2]): 333
- tissue to tissue ratio at 6 h (in vivo; [2]): 111
- tissue to tissue ratio at 24 h (in vivo; [2]): 59
- tissue to tissue ratio at 1 h (in vivo; [3]): 57.4
- tissue to tissue ratio at 2 h (in vivo; [3]): 62.4
- tissue to tissue ratio at 6 h (in vivo; [3]): 37.1
- tissue to tissue ratio at 24 h (in vivo; [3]): 17.7
- tissue to tissue ratio at 1 h (in vivo; [4]): 0.3
- tissue to tissue ratio at 2 h (in vivo; [4]): 0.21
- tissue to tissue ratio at 6 h (in vivo; [4]): 0.09
- tissue to tissue ratio at 24 h (in vivo; [4]): 0.03
- tissue to tissue ratio at 1 h (in vivo; [5]): 78
- tissue to tissue ratio at 2 h (in vivo; [5]): 66.6
- tissue to tissue ratio at 6 h (in vivo; [5]): 9.27
- tissue to tissue ratio at 24 h (in vivo; [5]): 3.34
- tissue to tissue ratio at 1 h (in vivo; [6]): 27.9
- tissue to tissue ratio at 2 h (in vivo; [6]): 52.6
- tissue to tissue ratio at 6 h (in vivo; [6]): 19.9
- tissue to tissue ratio at 24 h (in vivo; [6]): 13.6
- tissue to tissue ratio at 1 h (in vivo; [7]): 325
- tissue to tissue ratio at 2 h (in vivo; [7]): 500
- tissue to tissue ratio at 6 h (in vivo; [7]): 185
- tissue to tissue ratio at 24 h (in vivo; [7]): 88.5
- tissue to tissue ratio at 1 h (in vivo; [8]): 32.5
- tissue to tissue ratio at 2 h (in vivo; [8]): 62.4
- tissue to tissue ratio at 6 h (in vivo; [8]): 13.9
- tissue to tissue ratio at 24 h (in vivo; [8]): 5.71
- tissue uptake at 24 h (in vivo; total radioactivity, Kidneys uptake): 54.9 ± 17.1 %ID/g
- tissue uptake (in vivo; total radioactivity, Non-target organs uptake): ≤ 1 %ID/g
- tissue uptake at 1 h (in vivo; [9]): 19.5 ± 3.5 %ID/g
- tissue uptake at 6 h (in vivo; [9]): 5.56 ± 1.24 %ID/g
- tissue uptake at 24 h (in vivo; [9]): 1.77 ± 0.51 %ID/g
- Cell Surface B 4°C (HT1080 cells; [10]): 0.05 ± 0.01 %AA/10^5 cells
- Internalization B 4°C (HT1080 cells; [10]): 0.01 ± 0.01 %AA/10^5 cells
- Cell Surface 4°C (HT1080 cells; 4°C, listed as 177Lu-BCY18469): 0.51 ± 0.01 %AA/10^5 cells
- Internalization 4°C (HT1080 cells; 4°C, listed as 177Lu-BCY18469): 0.06 ± 0.01 %AA/10^5 cells
- Cell Surface (HT1080 cells; [11]): 0.62 ± 0.03 %AA/10^5 cells
- Internalization (HT1080 cells; [11]): 0.13 ± 0.01 %AA/10^5 cells
- Cell Surface B (HT1080 cells; 37°C, block with 10 µM non-labeled compound): 0.02 ± 0.01 %AA/10^5 cells
- Internalization B (HT1080 cells; 37°C, block with 10 µM non-labeled compound, listed as 177Lu-BCY18469): 0.01 ± 0.01 %AA/10^5 cells
